Assay [1] addresses soluble CAR D1 domain (chicken). As to the kind of experiment: SPR. A general note: SPR reads the build-up and loss of mass on a sensor chip optically.
Assay [2] addresses soluble CAR D12 (chicken). Description: SPR.

B1: CELO fiber1 knob (domain or fragment)
chain: GSSTPEVATYHCGDNLLESYDIFASLPNTNAAKVAAYCRLAAAGGVVSGTIQVTSYAGRWPKVGNSVTDGIKFAIVVSPPMDKDPRSNLSQWLGATVFPAGATTALFSPNPYGSLNTITTLPSIASDWYVPESNLVTYTKIHFKPTGSQQLQLASGELVVAAAKSPVQTTKYELIYLGFTLKQNSSGTNFFDPNASSDLSFLTPPIPFTYLGYYQ
B1: the figures for the Kd in assay [1] and in assay [2] were 420 nM and 115 nM, respectively.

Usually Kd stands for the concentration at which binding is half-saturated.
